Laboratory results from patent US20240238374A1, “METHODS AND COMPOSITIONS FOR INDUCING BROWN ADIPOGENESIS” (ENERGESIS PHARMACEUTICALS, INC., priority 2021, published 2024).

System: Diet-Induced Obese (DIO) mouse
Assay: Diet-Induced Obese (DIO) mouse study: hFGF7 alone and with semaglutide, 28 days of dosing
Format: in vivo, C57Bl/6 mice
Details: DIO mice
Description: Obesity and insulin resistance, an early stage in the development of type 2 diabetes (also known as pre-diabetes), was induced in C57Bl/6 mice by feeding the mice with a high fat diet (Research Diets, Cat #D12492, 60% fat kcal) for 12 weeks starting at 6 weeks of age, and throughout the period of compound dosing. The mice were housed at 22-23° C. and abundant nestlets/bedding material was provided to allow the animals to maintain a microenvironment close to their thermoneutrality of 28-30° C., starting 2 weeks prior to the dosing period and for the full dosing period with a 12 h/12 h light/dark cycle. These environmental conditions are understood by those skilled in the art to reduce the stimulus for maintaining BAT, a thermogenic tissue that is recruited physiologically by cold stimulus, and permit a wider window for observing effects related to BAT recruitment.
Mice were dosed once per day by intraperitoneal injection (100 μl per mouse) with vehicle (9.6 mg/ml mannitol, 4.8 mg/ml sucrose, 0.37 mg/ml L-histidine, 0.025 mg/ml polysorbate 20 (Tween 20, CAS #9005-64-5), […], also referred to as EGS0501 in corresponding figures) dissolved in the vehicle for 28 days. In addition, some mice also received semaglutide (0.012 mg/kg=3 nmol/kg) every 3 days by intraperitoneal injection (100 μl per mouse) dissolved in the vehicle.
Body weight was recorded every day and body composition (fat and lean mass with EchoMRI) was assessed at the end of the study (University of Cincinnati Mouse Metabolic Phenotyping Center). At the end of the dosing period, animals were fasted for 6 hours and euthanized by CO2, blood was collected, and plasma was isolated and frozen at −20° C. Plasma glucose, insulin and leptin levels were assessed at baseline and at the end of the dosing period (mice were fasted for 6 hours before all plasma collection) (University of Cincinnati Mouse Metabolic Phenotyping Center). Insulin sensitivity was determined by HOMA-IR.
Data from in vivo mouse studies are presented as means±SEM. Significance values were evaluated based on the unpaired two-tailed t-test versus vehicle using GraphPad Prism version 7 or 8 (GraphPad Software, San Diego, CA). To assess synergistic effects of A and B, the combination A+B was compared to the sum of A alone and B alone. To quantify synergistic effects, we used percent changes from baseline when baseline data were available and used the difference from vehicle for parameters without baseline data.

B1: hFGF7: recombinant human Fibroblast Growth Factor-7, also referred to as EGS0501; SEQ ID NO: 8 is the sequence for human FGF7 (protein, listed as Homo sapiens)
chain: MHKWILTWILPTLLYRSCFHIICLVGTISLACNDMTPEQMATNVNCSSPERHTRSYDYMEGGDIRVRRLFCRTQWYLRIDKRGKVKGTQEMKNNYNIMEIRTVAVGIVAIKGVESEFYLAMNKEGKLYAKKECNEDCNFKELILENHYNTYASAKWTHNGGEMFVALNQKGIPVRGKKTKKEQKTAHFLPMAIT
modifications: (1)..(194) Fibroblast Growth Factor-7
significant decreases: body weight compared to vehicle (hFGF7 1 mg/kg ip once a day) | epididymal white adipose (WATepi) depot weight compared to vehicle (hFGF7 1 mg/kg ip once a day) | insulin resistance index (HOMA-IR) compared to vehicle (hFGF7 1 mg/kg ip once a day) | plasma glucose compared to vehicle (hFGF7 1 mg/kg ip once a day) | plasma insulin compared to vehicle (hFGF7 1 mg/kg ip once a day) | plasma leptin compared to vehicle (hFGF7 1 mg/kg ip once a day)
significant effect: plasma glucose compared to vehicle (hFGF7 0.5 mg/kg ip once a day)
